In PMC9813358, “Insights into the GSDMB-mediated cellular lysis and its targeting by IpaH7.8” (Nature Communications, 2023):

B1: human GSDMD [human] / IpaH7.8 protein (residues 23–565) [Shigella flexneri] (parent)
chain 1: MGSAFERVVRRVVQELDHGGEFIPVTSLQSSTGFQPYCLVVRKPSSSWFWKPRYKCVNLSIKDILEPDAAEPDVQRGRSFHFYDAMDGQIQGSVELAAPGQAKIAGGAAVSDSSSTSMNVYSLSVDPNTWQTLLHERHLRQPEHKVLQQLRSRGDNVYVVTEVLQTQKEVEVTRTHKREGSGRFSLPGATCLQGEGQGHLSQKKTVTIPSGSTLAFRVAQLVIDSDLDVLLFPDKKQRTFQPPATGHKRSTSEGAWPQLPSGLSMMRCLHNFLTDGVPAEGAFTEDFQGLRAEVETISKELELLDRELCQLLLEGLEGVLRDQLALRALEEALEQGQSLGPVEPLDGPAGAVLECLVLSSGMLVPELAIPVVYLLGALTMLSETQHKLLAEALESQTLLGPLELVGSLLEQSAPWQERSTMSLPPGLLGNSWGEGAPAWVLLDECGLELGEDTPHVCWEPQAQGRMCALYASLALLSGLSQEPH
chain 2: SNEHYLRILTEWEKNSSPGEERGIAFNRLSQCFQNQEAVLNLSDLNLTSLPELPKHISALIVENNKLTSLPKLPAFLKELNADNNRLSVIPELPESLTTLSVRSNQLENLPVLPNHLTSLFVENNRLYNLPALPEKLKFLHVYYNRLTTLPDLPDKLEILCAQRNNLVTFPQFSDRNNIRQKEYYFHFNQITTLPESFSQLDSSYRINISGNPLSTRVLQSLQRLTSSPDYHGPQIYFSMSDGQQNTLHRPLADAVTAWFPENKQSDVSQIWHAFEHEEHANTFSAFLDRLSDTVSARNTSGFREQVAAWLEKLSASAELRQQSFAVAADATESCEDRVALTWNNLRKTLLVHQASEGLFDNDTGALLSLGREMFRLEILEDIARDKVRTLHFVDEIEVYLAFQTMLAEKLQLSTAVKEMRFYGVSGVTANDLRTAEAMVRSREENEFTDWFSLWGPWHAVLKRTEADRWAQAEEQKYEMLENEYSQRVADRLKASGLSGDADAEREAGAQVMRETEQQIYRQLTDEVLALRLSENGSRLHHS

Variants of: B1
Assay: ITC
Details: with IpaH7.8 protein (residues 23–565) [Shigella flexneri]
With chain 1 S124R the Kd was 0.23 µM.
